In IntAct's records for PubMed 25616961:

B1: Heterogeneous nuclear ribonucleoprotein A1 (Homo sapiens), P09651-2 (parent)
chain: MSKSESPKEPEQLRKLFIGGLSFETTDESLRSHFEQWGTLTDCVVMRDPNTKRSRGFGFVTYATVEEVDAAMNARPHKVDGRVVEPKRAVSREDSQRPGAHLTVKKIFVGGIKEDTEEHHLRDYFEQYGKIEVIEIMTDRGSGKKRGFAFVTFDDHDSVDKIVIQKYHTVNGHNCEVRKALSKQEMASASSSQRGRSGSGNFGGGRGGGFGGNDNFGRGGNFSGRGGFGGSRGGGGYGGSGDGYNGFGNDGSNFGGGGSYNDFGNYNNQSSNFGPMKGGNFGGRSSGPYGGGGQYFAKPRNQGGYGGSSSSSSYGSGRRF

Variants of: B1
Details: with ubql2_human UBQLN2, Q9UHD9
ubql2_human UBQLN2, Q9UHD9, sequence (Q9UHD9 whole entry): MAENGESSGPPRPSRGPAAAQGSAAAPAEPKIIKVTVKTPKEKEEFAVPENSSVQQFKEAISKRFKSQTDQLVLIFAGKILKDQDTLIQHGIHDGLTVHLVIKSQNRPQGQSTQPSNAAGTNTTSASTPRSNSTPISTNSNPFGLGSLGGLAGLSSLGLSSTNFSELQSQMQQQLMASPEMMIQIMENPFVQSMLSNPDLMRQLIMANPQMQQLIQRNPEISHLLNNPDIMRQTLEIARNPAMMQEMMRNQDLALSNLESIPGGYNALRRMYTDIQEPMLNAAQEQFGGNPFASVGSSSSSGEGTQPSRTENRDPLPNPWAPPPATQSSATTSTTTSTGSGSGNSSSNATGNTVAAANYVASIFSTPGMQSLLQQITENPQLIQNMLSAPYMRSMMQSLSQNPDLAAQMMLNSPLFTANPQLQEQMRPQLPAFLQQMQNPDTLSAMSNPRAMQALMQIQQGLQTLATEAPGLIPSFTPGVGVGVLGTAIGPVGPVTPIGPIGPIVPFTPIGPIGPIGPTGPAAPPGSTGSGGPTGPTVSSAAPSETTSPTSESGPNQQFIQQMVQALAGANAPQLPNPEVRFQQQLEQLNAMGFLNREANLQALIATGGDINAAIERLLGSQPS

Variant	effect of a mutation on the interaction
D262V	decreasing interaction
